Results on one protein are retold here after patent publication US7592168B2, “Cephalosporin C acylase mutant and method for preparing 7-ACA using same” (Sandoz AG, priority 2003, dated 2009).

Substrate in the data set: [H][C@]12SCC(COC(C)=O)=C(C(=O)O)N1C(=O)[C@H]2NC(=O)CCC[C@@H](N)C(=O)O
Kind of data set: CPC hydrolysis kinetics (Lineweaver-Burk plot), wild-type CPC acylase AcyII. In kind it is biochemical, Pseudomonas sp. SE83. As to conditions: other: substrate CPC, purified enzyme, 0.1 M Tris-HCl pH 8.0, 37° C. The procedure:
The enzyme activity of CPC acylase mutant to CPC was measured according to the method described by Park et al. with minor modifications as follows (Park, et al., Kor. J. Appl. Microbiol. Biotechnol. 23: 559-564, 1995). A substrate solution was prepared by dissolving CPC (purity 74.2%; CJ Corp., Korea) in 0.1 M Tris-HCl buffer solution (pH 8.0) at a concentration of 20 mg/ml and adjusting pH to 8 with 1 N NaOH. 20 μl of the CPC solution was mixed with 20 μl of the crude enzyme solution prepared above and the reaction mixture was incubated at 37° C. for 5 min. After the reaction, the mixture (200 μl) of 50 mM NaOH and 20% glacial acetic acid (1:2) was added thereto to stop the reaction. 200 μl of the supernatant recovered from the reaction mixture by centrifugation was mixed with 40 μl of 0.5% (w/v) PDAB (p-dimethylaminobenzaldehyde; Sigma, USA) dissolved in a methanol and the reaction mixture was incubated at 37° C. for 10 min. After the reaction, the absorbance of reaction mixture was measured at 415 nm and quantified by comparing with a calibration curve of standard material. At this time, 1 unit has been defined as the amount of enzyme capable to produce 1 μmole of 7-ACA from CPC per minute. Meanwhile, the specific activity of CPC acylase mutant for CPC was determined by measuring the amount of protein remaining in the enzyme solution according to the method described by Bradford (Bradford, M., Anal. Biochem. 72: 248-254, 1976) and representing it as an active unit corresponding to 1 mg of protein. The reactivity of CPC acylase mutant to CPC was determined by the following steps of adding the same amount of protein to a reaction mixture, performing an enzyme reaction for a fixed time, measuring the amount of 7-ACA produced in the reaction mixture, and representing it as a relative value. The end-product inhibition by 7-ACA was determined by adding a protein corresponding to the same active unit to a reaction mixture, performing an enzyme reaction for a fixed time; measuring the amount of 7-ACA produced in the reaction mixture, and representing it as a relative value. […]

B1: Pseudomonas sp. SE83 CPC acylase AcyII, wild type, SEQ ID NO: 2 (alpha-subunit SEQ ID NO: 4, beta-subunit SEQ ID NO: 5) (Pseudomonas sp. SE83) (protein)
chain 1: TMAAKTDREALQAALPPLSGSLSIPGLSAPVRVQRDGWGIPHIKASGEADAYRALGFVHAQDRLFQMELTRRKALGRAAEWLGAEAAEADILVRRLGMEKVCRRDFEALGAEAKDMLRAYVAGVNAFLASGAPLPIEYGLLGAEPEPWEPWHSIAVMRRLGLLMGSVWFKLWRMLALPVVGAANALKLRYDDGGQDLLCIPPGVEAERLEADLAALRPAVDALLKAMGG
chain 2: SNNWAVAPGRTATGRPILAGDPHRVFEIPGMYAQHHLACDRFDMIGLTVPGVPGFPHFAHNGKVAYCVTHAFMDIHDLYLEQFAEDGRTARFGNEFEPVAWRRDRIAVRGGADREFDIVETRHGPVIAGDPLEGAALTLRSVQFAETDLSFDCLTRMPGASTVAQLYDATRGWGLIDHNLVAGDVAGSIGHLVRARVPSRPRENGWLPVPGWSGEHEWRGWIPHEAMPRVIDPPGGLIVTANNRVVADDHPDYLCTDCHPPYRAERIMERLVASPAFAVDDAAAIHADTLSPHVGLLRARLEALGIQGSLPAEELRQTLIAWDGRMDAGSQAASAYNAFRRALTRLVTARSGLEQAIAHPFAAVPPGVSPQGQVWWAVPTLLRNDDAGMLKGWSWDEALSEALSVATQNLTGRGWGEEHRPRFTHPLSAQFPAWAALLNPVSRPIGGDGDTVLANGLVPSAGPEATYGALSRYVFDVGNWDNSRWVVFHGASGHPASPHYADQNAPWSDCAMVPMLYSWDRIAAEAVTSQELVPA
notes: made in house; host or cells: E. coli MC1061
In the case of B1, the Km is reported as 50 mM, the kcat was found to be 0.9 s⁻¹ and the kcat/Km was 20 M⁻¹ s⁻¹.

The term Km denotes the substrate concentration at which the rate is half of its maximum. As usually defined, the kcat is the maximal rate divided by the concentration of active sites. Broadly, the kcat/Km is the second-order rate constant that governs catalysis at low substrate concentration.
